Assay results taken from patent publication US11673947B2, “Target tissue-specific antigen-binding molecule” (Chugai Seiyaku Kabushiki Kaisha, priority 2012, dated 2023).

Target: T1, human IL6 receptor (IL-6R) (Homo sapiens, UniProt P08887)
T1 sequence (P08887 20-355 limits assumed): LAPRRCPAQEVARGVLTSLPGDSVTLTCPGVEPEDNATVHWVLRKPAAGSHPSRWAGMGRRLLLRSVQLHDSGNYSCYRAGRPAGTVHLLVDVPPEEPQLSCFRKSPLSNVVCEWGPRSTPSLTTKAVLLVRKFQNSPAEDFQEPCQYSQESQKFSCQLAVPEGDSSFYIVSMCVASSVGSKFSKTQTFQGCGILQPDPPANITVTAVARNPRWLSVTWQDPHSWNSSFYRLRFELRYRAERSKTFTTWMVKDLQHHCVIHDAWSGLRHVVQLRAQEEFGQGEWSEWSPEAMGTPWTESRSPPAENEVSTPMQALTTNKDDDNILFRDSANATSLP
Experiment: Biacore T200, interaction of 6RNMSC1-2_F02 with human IL6 receptor with or without kynurenine
Format: binding
Settings: 25° C.
Excerpt: Biacore T200 (GE Healthcare) was used to analyze the interaction of 6RNMSC1-2_F02 with human IL6 receptor (IL-6R) in antigen-antibody reaction. Sensor chip CM5 (GE Healthcare) was immobilized with an appropriate amount of protein A (Invitrogen) by amine coupling. The antibody of interest was captured by the chip to allow interaction with IL-6R as an antigen. The running buffer used was 20 mmol/1 ACES, 150 mmol/l NaCl, 0.05% (w/v) Tween20, pH 7.4. The interaction with the antigen IL-6R was assayed at 25° C. The buffers used to dilute IL-6R were the running buffer itself, and a buffer prepared by adding 100 μmol/l kynurenine to the running buffer, and in addition a buffer prepared as a control by adding 10 mmol/l ATP to the running buffer.
A diluted IL-6R solution and a running buffer as a blank were injected at a flow rate of […] for one minute to allow interaction of IL-6R with 6RNMSC1-2_F02 captured on the sensor chip. Then, the running buffer was injected at a flow rate of 10 μl/min for one minute. After observation of IL-6R dissociation from the antibody, 10 mmol/l glycine-HCl (pH 1.5) was injected at a flow rate of 30 μl/min for 30 seconds to regenerate the sensor chip. The dissociation constant KD (M) of 6RNMSC1-2_F02 was calculated for IL-6R based on the association rate constant ka (1/Ms) and dissociation rate constant kd (1/s), both of which are kinetic parameters calculated from the sensorgram obtained by the measurement. Each parameter was calculated using the Biacore T200 Evaluation Software (GE Healthcare).
The running buffers used were 20 mmol/1 ACES, 150 mmol/l NaCl, 0.05% (w/v) Tween20, pH 7.4, and 20 mmol/1 ACES, 150 mmol/l NaCl, 0.05% (w/v) Tween20, pH 7.4, 100 μmol/l kynurenine, and assay was carried out at 25° C. IL-6R was immobilized onto Sensor chip CM5 by amine coupling; and 6RNMSC1-2_F02 was diluted to 5 μg/ml with 20 mmol/1 ACES, 150 mmol/l NaCl, 0.05% (w/v) Tween20, pH 7.4, containing 100 μmol/l kynurenine, and it was interacted as an analyte for 180 seconds. Then, the dissociation of […] was monitored under each running buffer condition. In order to compare the degree of dissociation between the respective running buffer conditions, the values were normalized by taking as 100 the amount of 6RNMSC1-2_F02 bound to IL-6R in the presence of 100 μmol/l kynurenine and compared.
Next, Biacore T200 (GE Healthcare) was used to assess the effect of kynurenine concentration on the antigen-antibody reaction between 6RNMSC1-2_F02 and IL-6R. The running buffer used was 20 mmol/1 ACES, 150 mmol/l NaCl, 0.05% (w/v) Tween20, pH 7.4. The antigen-antibody reaction between 6RNMSC1-2_F02 and human IL-6R was assayed at 25° C. IL-6R was immobilized onto sensor chip CM5 by amine coupling; and 6RNMSC1-2_F02 was diluted to 1 μg/ml with 20 mmol/l ACES, 150 mmol/l NaCl, 0.05% (w/v) Tween20, pH 7.4 containing various concentrations of kynurenine, and it was allowed to interact as an analyte for 180 seconds to observe changes in the amount of binding.

B1: 6RNMSC1-2_F02: antibody that binds to hIL-6R in the presence of kynurenine; SEQ ID NOs: 86 and 87 (antibody, listed as Homo sapiens, V domains shown)
VH: QVQLVQSGAEVKKPGSSVKVSCKASGGTFSSYAISWVRQAPGQGLEWMGGIIPIFGTANYAQKFQGRVTITADESTSTAYMELSSLRSEDTAVYYCARDAPVVARPRGAFDIWGQGTMVTVSS
VL: DIVMTQTPLSSPVTLGQPASISCRSSQSLVHSDGNTYLSWLQQRPGQPPRLLIHEISNRFSGVPDRFSGSGAGTNFTLKISRVEAEDVGVYYCMQATQFPRTFGQGTKVEIK
IL-6R binding (sensorgram) (1 μmol/l IL-6R, in the absence of kynurenine): not detectable
binding to IL-6R (sensorgram) (1 μmol/l IL-6R, in the presence of 100 μmol/l kynurenine): binds to IL-6R
effect of kynurenine concentration on amount bound to IL-6R (IL-6R immobilized, antibody as analyte for 180 seconds): the higher the concentration of kynurenine serving as a switch, the greater the amount of 6RNMSC1-2_F02 bound to IL-6R
dissociation from IL-6R (bound with 100 μmol/l kynurenine, then buffer without kynurenine, IL-6R immobilized): rapidly dissociates from IL-6R in the absence of kynurenine
Kd (in the presence of 100 μmol/l kynurenine, read-out: dissociation constant KD): 1.5 µM
